According to patent US20230226096A1 (Orna Therapeutics, Inc., priority 2020, published 2023):

B1: Parabovirus A3 (nucleic acid, listed as Parabovirus sp.)
DNA: ACCGTTACGCACCACTCAGTTGGTGTTTGGTGGCACCAATGATGGAACAAAAGGCTACACCACTTGGGCTACGGCCCGCGCCACCTTGTGGCGCAAAGACATTAGAAGAATAGCATACCGCCCACTAGGGCCCTGCAGCCAGCAGGGTAACGGGCAAGCACTTCTGTCTCCCCGGTAGAACGGTATAGGCTGTACCCACGGCCGAAAACTGAACTATCGTTACCCGACTCCGTACTTCGCAAAGCTTAGTAGGAAACTGGAAAGTTCGAGTTATTGACCCGGAGTGTTCCCCCCACTCCAGAAACGCGTGATGAGGGTTGCCACCCCGACCATGGCGACATGGTGGGCATCCCTGCGCTGGCACGCGGCCTCTAAGAGGATAACTCGCTCCTACTGGTAACCGAAGAGCCCCGTGAGCTACGGTTTATTCCTCCGCCTCCCTGAATGCGGCTAATCCTAACCCATGAGCAGTTGCCATAGATCCATATGGTGGACTGTCGTAACGCGTAAGTTGTGGGCGGAACCGACTACTTTGGGATGGCGTGTTTCCTTGTTTTCTCCATTTGTTGTTGTATGGTGACAAGTTATAGATCTCGATCTATAGCGTTTCTTGAGAGATTTCCAAACATTTATTCAAGTCGTACAATTCTTGTGTTTAAGCAGTACAGTGTAAGG
B2: Boosepivirus A (nucleic acid)
DNA: TTGAAAGACCTCGGCATATATCGTTGTCACAACGGTATATGTCGAGATCTTTCTCCCCACCCCCTCCAATTCCCTTTTCCCCCTCTTGCAACTTAGAAGTTTGTACACACAGGGCAATAGGATACGTGATCCAGCCAGGACACGTGAGCTCAAGCACTTCTGTTTCCCCGTCCCCTTCACGTACTACGGGAATGTTAGTAATTTGTGTGCACTTTAGTAAGGTTGATCCGGGATTAACCCCAAATCCCAGAAACTGGTGATGAGCGTTACCACCCCCGCCGGGCGACCGGAAGGTTTCGCTGCGTTGGCACCAGGGCTTCGGCACCAGAAAAAGGTAAAGCAAATGAAGGCGCTACTGTGCTACGAGAAGTTTCCTCCAGGCCCCTGAATGCGGCTAATCCTAACCAGTGATCCACCGGTGCAAAACCATGTACTAGGTGGTCGTAACGCGCAAGTCGCTGGCGGAACCGACTACTTTGGGTGTCCTGTGTTTCCATATTTTATTTTATTCAATTTTATGGTGACAAGAGTAAAGAGATACAGATTTGCAGCC
modifications: Boosepivirus A
B3: Felipivirus 127F (nucleic acid, listed as Felipivirus sp.)
DNA: GATGTCGGATGACGGCTGGCCACCGGGGAAAAACGGCAAATGTGCACCACCTCTGCAACCCACGCCGACCACGTTTAACCATGGCGTTAGTAGGAGTGGACCACTGCAGTGGGCTCTGGTGTGCGACAGTCAGTGGTAGAGTAGACAGTCCTGACTGGGCAATGGGACCGCGTTGCGTATCCCTAGGTGGCATCGAGATTCCTCTGCTACCCACCAGCGTGGACTCCTATGGGGGGGGCCCCATAGGCTAGGTCTATACTGCCTGATAGGGTCGCGGCTGGTCGACCACTGACTGTATAACCAGTTGTAACTCACT
B4: Parabovirus B (nucleic acid)
DNA: AACCCATAATCCATTGTCCATCAATGTTTTATGGGGGGGACCCTTTCTCCCCTCCCCCTCCAAATACCTTTTACCCCTCTGTAACCAAGAGTGTGCAAAATCTATTTACTAGCCCAGAATTGCGGCTTCTGGGGAGGTTTATTCCTCATGCCTAACAAGATGTTACGCAAACTCCGGGCTACGGCCCTGGGCTTTTGCCCTAAAGATTTAGAAGTTTACACTATCGTCCAACAGGAGGACAACAAACCAGTTGTTCTAAGGACAAGCACTTCTGTTTCCCCGGTGAGACTGGATAGACTGTACCCACGGTTGAAACTGGTTGATCCGTTACCCGACTCACTACTTCGAGAAGATTAGTAGGAAACTGTGAAACTGATTCCATTGATCCGGATACTTTCCCCGTATCCAGAAACTACTGATGAGGGTTGACTTCCCGACTACGGCGACGTAGTGTCATCCCTGCGCTGGCAGTAGGCCTCTTTGAGGATGGAAGATGTGGATCGGTAACCGAAGGTCCTATTGAGCTAGTGTTTATACCTCCGGCCTCCTGAATGCGGCTAATCCTAACCCATGATCTAGTGCTCACAAACCAGTGAGTAGCTAGTCGTAACGCGTAAGTCGTGGGCGGAACCGACTACTTTGGAGTGACCGTGTTTCCTATTTTACTTTTGTTTG
modifications: Parabovirus B
B5: Parabovirus C (nucleic acid)
DNA: GATGTATCCCCATCCCCCAGTGTGTATGCCATACTGCATAGCTCGCCTATGCCCTATGGATTCACAACCCTTTCATATACCCTCCCTACCCAACCCCGTAACCACATGCTTTACTCCGCTTGGGGTTTTGCGGCCCCATGTTGTGACGAAATGGCTACGCAATCAATGCGGCTAATGGGGCCTGCCGCTTTTAAGTGGCCCCAGTTAGAAGTTTATGCACACCCGCCCATTAGGAGGCCACCAGCCAGGTGGTCAGAGGGCAAGCACTTCTGTTTCCCCGGTGAAGTTTGATAAGCTGTGCCCACGGCTGAAGCAGACAGATCCGTTACCCGCCTCACTACTACGAGACGGCTAGTAGTGTGTAATATCCGAATTTCATTGATCCGGGTGTTCCCCCCACCCAGAAACGTGTGATGAGGAGCGGCACCCCTCCTATGGCAACATAGGGCCTCTCCTGCGCTGGCACACGGGCTCTATGAGCATGAAATCAGGAGAAAGTCACACGAAGACCTTATTGTGCTAGTGTTGATTCCTCCGCCCCCCTGAATGCGGCTAATCCCAACTCCGGAGCGCCCGCTGGCAAACCCGCCAGAAGAGCGTCGTAATGCGTAAGTCTGGAGCGGAACCGACTACTTTGGGTGTGGCGTGTTTCCTTTATTTCCTTTGTATTTGTAT
modifications: Parabovirus C
B6: Rabovirus A NYC-B10 (nucleic acid)
DNA: CCGACCCCACTGGTCGAAGGCCACTTGGCAATAAGACTGGTGGAACAAGGTCGCCTGTAGTTGATTGGAACCTTCTTTCTAATGACTTATGTCAGCGGTGCTACTCACACCGTAACTCTCCTACCCTATCCCCACGCTTGTGGAACTAGGAGGGGATGAGTGATTCAAGTAAGTACTGTCAGAATGGTGAAAATAATCTGATTCTGAAACGCTATGGATCCATCGAAAGATGGGGCTACACGCCTGCGGAACAACACATGGTAACATGTGCCCCAGGGGCCGAAAGCCACGGTGATAGGATCACCCGTGTAGTTTGAGATCATATCAATGTTCATAGTCTAGTAAGATGATTTGAAATCTAACTGGTCTGATGGCTAACTGCTTGTCTTATTGCGGCCTAAGGATGTCCTGCAGGTACCTTTAGAGAACCTTAAGAGACTATTGATCTGAGCAGGAGCCAAGGTGGTCTTTCCCAGCCTTGGTTAAAAAGCGTCTAAGCCGCGGCAGGGGGCGGGAGGCCCCCTTTCCTCCCAAACTATAATATAGATTGT
modifications: Rabovirus A
B7: Cadicivirus B (nucleic acid)
DNA: CACCAACCCTTGACCTGTAATGTCAGTGGACAGAGTGCTCCTCTGTTCCCGGTTACCGTGTTCCAGGACACGATTGTAATCCTGCGCCTCACCAGCGCTGCGTGCACGTCTGCATAAGGAAACGTGCCTTCCCCATGTCTCTATCAATTCTTTGGTGAGTGACCGCCCTAGTTGCTCATCCTATGGGATTCTTCTCTCATGGGTTCTTTGTGGCATGCGAATGTCACCTTAATTGGAGGTCTTTAATTAGATATCCTTTCTTCATCTTTGATATGAGTGTCGGAATTTGATTCCTAGTCTCTGCAAAACAACCCCACTTGATGAATTCAACTTTTCAACCGCACAAACATAATCAGGTTTTTAAATTGAATGTTTCTAAATTCTAAATTTAGTTTATTTAAGTAGTTTGCCATCTTGACTCGATGTAAAATTGTCATACAAGTCTTCTTTTCTTTTCTTTACACTTTGAAGTTTGCACTTAGCAGTCGTTCTGCACAGCTTTCGAGTTTTGTTTGATCGACATCGCAACTTCCACCCACCTCTCTTTTTCTAGTGTTGAATGCGGCTAATCCTAACCCGAGAGCAATAAACCCAGGTTTATTGTCGTAACGCGCAAGTCTTGGACGGAACCGACTATACACACACCTCTTTACCCTTTAGTACACCCTTGGTACG
modifications: Cadicivirus B

Test system: HEK293 cells
Type: cell-based, human
Settings: luminescence from secreted Gluc in supernatant 24 hours after transfection of HEK293 cells; circular RNA encoding Gluc with the named IRES (UTR truncated to 675 nt)

Question: How did the Expression turn out when B1 was run?
Answer: The Expression was 2.44E+08.

Question: B2 was tested. Which Expression did it give?
Answer: The Expression was 7.07E+07.

Question: B3 was tested. Which Expression did it give?
Answer: The Expression was 8.92E+06.

Question: How did the Expression turn out when B4 was run?
Answer: Its Expression is 7.85E+06.

Question: Which Expression does the source give for B5 here?
Answer: Its Expression is 1.83E+07.

Question: Which Expression does the source give for B6 here?
Answer: Its Expression is 1.24E+06.

Question: B7 was tested. Which Expression did it give?
Answer: The Expression was 2.10E+05.
